Source: IntAct's records for PubMed 24141787

B1: Partner and localizer of BRCA2 (Homo sapiens), Q86YC2 (parent)
chain: MDEPPGKPLSCEEKEKLKEKLAFLKREYSKTLARLQRAQRAEKIKHSIKKTVEEQDCLSQQDLSPQLKHSEPKNKICVYDKLHIKTHLDEETGEKTSITLDVGPESFNPGDGPGGLPIQRTDDTQEHFPHRVSDPSGEQKQKLPSRRKKQQKRTFISQERDCVFGTDSLRLSGKRLKEQEEISSKNPARSPVTEIRTHLLSLKSELPDSPEPVTEINEDSVLIPPTAQPEKGVDTFLRRPNFTRATTVPLQTLSDSGSSQHLEHIPPKGSSELTTHDLKNIRFTSPVSLEAQGKKMTVSTDNLLVNKAISKSGQLPTSSNLEANISCSLNELTYNNLPANENQNLKEQNQTEKSLKSPSDTLDGRNENLQESEILSQPKSLSLEATSPLSAEKHSCTVPEGLLFPAEYYVRTTRSMSNCQRKVAVEAVIQSHLDVKKKGFKNKNKDASKNLNLSNEETDQSEIRMSGTCTGQPSSRTSQKLLSLTKVSSPAGPTEDNDLSRKAVAQAPGRRYTGKRKSACTPASDHCEPLLPTSSLSIVNRSKEEVTSHKYQHEKLFIQVKGKKSRHQKEDSLSWSNSAYLSLDDDAFTAPFHRDGMLSLKQLLSFLSITDFQLPDEDFGPLKLEKVKSCSEKPVEPFESKMFGERHLKEGSCIFPEELSPKRMDTEMEDLEEDLIVLPGKSHPKRPNSQSQHTKTGLSSSILLYTPLNTVAPDDNDRPTTDMCSPAFPILGTTPAFGPQGSYEKASTEVAGRTCCTPQLAHLKDSVCLASDTKQFDSSGSPAKPHTTLQVSGRQGQPTCDCDSVPPGTPPPIESFTFKENQLCRNTCQELHKHSVEQTETAELPASDSINPGNLQLVSELKNPSGSCSVDVSAMFWERAGCKEPCIITACEDVVSLWKALDAWQWEKLYTWHFAEVPVLQIVPVPDVYNLVCVALGNLEIREIRALFCSSDDESEKQVLLKSGNIKAVLGLTKRRLVSSSGTLSDQQVEVMTFAEDGGGKENQFLMPPEETILTFAEVQGMQEALLGTTIMNNIVIWNLKTGQLLKKMHIDDSYQASVCHKAYSEMGLLFIVLSHPCAKESESLRSPVFQLIVINPKTTLSVGVMLYCLPPGQAGRFLEGDVKDHCAAAILTSGTIAIWDLLLGQCTALLPPVSDQHWSFVKWSGTDSHLLAGQKDGNIFVYHYS
partner: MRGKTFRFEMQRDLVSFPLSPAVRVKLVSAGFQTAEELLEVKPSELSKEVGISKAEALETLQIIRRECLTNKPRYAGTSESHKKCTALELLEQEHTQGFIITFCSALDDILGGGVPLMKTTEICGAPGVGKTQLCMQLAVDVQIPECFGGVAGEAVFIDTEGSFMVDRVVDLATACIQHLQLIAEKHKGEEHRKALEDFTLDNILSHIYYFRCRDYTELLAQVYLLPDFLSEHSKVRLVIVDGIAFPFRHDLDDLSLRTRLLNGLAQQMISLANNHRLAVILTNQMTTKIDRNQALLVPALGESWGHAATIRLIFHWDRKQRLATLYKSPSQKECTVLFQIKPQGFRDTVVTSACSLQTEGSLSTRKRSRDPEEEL
B2: Partner and localizer of BRCA2 (Homo sapiens), Q86YC2 (parent)
chain: B1 chain
partner: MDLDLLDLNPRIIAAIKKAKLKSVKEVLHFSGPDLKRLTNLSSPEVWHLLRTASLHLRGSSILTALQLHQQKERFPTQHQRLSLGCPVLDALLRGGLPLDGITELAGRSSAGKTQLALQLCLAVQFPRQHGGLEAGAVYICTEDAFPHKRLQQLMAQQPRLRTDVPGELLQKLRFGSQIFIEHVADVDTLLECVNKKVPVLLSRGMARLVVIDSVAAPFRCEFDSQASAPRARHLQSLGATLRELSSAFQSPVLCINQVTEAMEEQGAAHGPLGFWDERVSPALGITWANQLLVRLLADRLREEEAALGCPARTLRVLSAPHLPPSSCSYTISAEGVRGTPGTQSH
B3: Partner and localizer of BRCA2 (Homo sapiens), Q86YC2 (parent)
chain: B1 chain

Variants of: B1
Conditions: with ra51c_human RAD51C

effect of a mutation on the interaction | Variant
decreasing interaction | T1030I

Variants of: B2
Conditions: with xrcc3_human XRCC3, O43542

effect of a mutation on the interaction | Variant
decreasing interaction | L939W

Variants of: B3
Conditions: with rad51_human RAD51, Q06609
rad51_human RAD51, Q06609, sequence (Q06609 whole entry): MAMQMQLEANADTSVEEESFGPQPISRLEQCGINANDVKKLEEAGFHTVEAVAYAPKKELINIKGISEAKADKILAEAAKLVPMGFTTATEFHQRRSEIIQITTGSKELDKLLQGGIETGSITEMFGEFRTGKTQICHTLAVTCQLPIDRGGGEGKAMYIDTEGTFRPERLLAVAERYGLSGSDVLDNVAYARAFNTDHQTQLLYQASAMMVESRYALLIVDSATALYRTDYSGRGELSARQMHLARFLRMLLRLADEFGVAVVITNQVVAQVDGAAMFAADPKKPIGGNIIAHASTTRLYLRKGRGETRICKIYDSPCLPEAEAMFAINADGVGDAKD

effect of a mutation on the interaction | Variant
decreasing interaction | L939W
decreasing interaction | T1030I
